# Results from patent US7244591.
# B1: Yapsin 1 (protein)
# chain: ADGYEEIIITNQQSFYSVDLEVGTPPQNVTVLVDTGSSDLWIMGSDNPYCSSNSMGSSRRRVIDKRDDSSSGGSLINDINPFGWLTGTGSAIGPTATGLGGGSGTATQSVPASEATMDCQQYGTFSTSGSSTFRSNNTYFSISYGDGTFASGTFGTDVLDLSDLNVTGLSFAVANETNSTMGVLGIGLPELEVTYSGSTASHSGKAYKYDNFPIVLKNSGAIKSNTYSLYLNDSDAMHGTILFGAVDHSKYTGTLYTIPIVNTLSASGFSSPIQFDVTINGIGISDSGSSNKTLTTTKIPALLDSGTTLTYLPQTVVSMIATELGAQYSSRIGYYVLDCPSDDSMEIVFDFGGFHINAPLSSFILSTGTTCLLGIIPTSDDTGTILGDSFLTNAYVVYDLENLEISMAQARYNTTSENIEIITSSVPSAVKAPGYTNTWSTSASIVTGGNIFTVNSSQTASFSGNLTTSTASATSTSSKRN
# Biological target: T1, recombinant human parathyroid hormone (hPTH), intact molecule (1-84), P01270
# T1 chain: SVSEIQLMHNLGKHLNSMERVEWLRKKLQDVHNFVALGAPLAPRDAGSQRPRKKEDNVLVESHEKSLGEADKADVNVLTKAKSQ
protein,measurement,value
B1,"cleavage of secreted hPTH into the truncated d1 form (27-84), SDS-PAGE of culture supernatants of wild-type and yps1-disrupted strains",the main protease causative of the cleavage of hPTH in the early culture stage is Yapsin 1
